For one experiment, the target named is sFlt-1 (Homo sapiens) (UniProt P17948). The conditions noted are these: cited from earlier work.
In experiment [1] the target is human VEGF (human) (UniProt P15692).
The target is the same in experiment [2]. This is another data set of the same source.
The target of a further experiment is mouse VEGF (mouse) (UniProt Q00731).

UniProt P17948, sequence (P17948 27-1338): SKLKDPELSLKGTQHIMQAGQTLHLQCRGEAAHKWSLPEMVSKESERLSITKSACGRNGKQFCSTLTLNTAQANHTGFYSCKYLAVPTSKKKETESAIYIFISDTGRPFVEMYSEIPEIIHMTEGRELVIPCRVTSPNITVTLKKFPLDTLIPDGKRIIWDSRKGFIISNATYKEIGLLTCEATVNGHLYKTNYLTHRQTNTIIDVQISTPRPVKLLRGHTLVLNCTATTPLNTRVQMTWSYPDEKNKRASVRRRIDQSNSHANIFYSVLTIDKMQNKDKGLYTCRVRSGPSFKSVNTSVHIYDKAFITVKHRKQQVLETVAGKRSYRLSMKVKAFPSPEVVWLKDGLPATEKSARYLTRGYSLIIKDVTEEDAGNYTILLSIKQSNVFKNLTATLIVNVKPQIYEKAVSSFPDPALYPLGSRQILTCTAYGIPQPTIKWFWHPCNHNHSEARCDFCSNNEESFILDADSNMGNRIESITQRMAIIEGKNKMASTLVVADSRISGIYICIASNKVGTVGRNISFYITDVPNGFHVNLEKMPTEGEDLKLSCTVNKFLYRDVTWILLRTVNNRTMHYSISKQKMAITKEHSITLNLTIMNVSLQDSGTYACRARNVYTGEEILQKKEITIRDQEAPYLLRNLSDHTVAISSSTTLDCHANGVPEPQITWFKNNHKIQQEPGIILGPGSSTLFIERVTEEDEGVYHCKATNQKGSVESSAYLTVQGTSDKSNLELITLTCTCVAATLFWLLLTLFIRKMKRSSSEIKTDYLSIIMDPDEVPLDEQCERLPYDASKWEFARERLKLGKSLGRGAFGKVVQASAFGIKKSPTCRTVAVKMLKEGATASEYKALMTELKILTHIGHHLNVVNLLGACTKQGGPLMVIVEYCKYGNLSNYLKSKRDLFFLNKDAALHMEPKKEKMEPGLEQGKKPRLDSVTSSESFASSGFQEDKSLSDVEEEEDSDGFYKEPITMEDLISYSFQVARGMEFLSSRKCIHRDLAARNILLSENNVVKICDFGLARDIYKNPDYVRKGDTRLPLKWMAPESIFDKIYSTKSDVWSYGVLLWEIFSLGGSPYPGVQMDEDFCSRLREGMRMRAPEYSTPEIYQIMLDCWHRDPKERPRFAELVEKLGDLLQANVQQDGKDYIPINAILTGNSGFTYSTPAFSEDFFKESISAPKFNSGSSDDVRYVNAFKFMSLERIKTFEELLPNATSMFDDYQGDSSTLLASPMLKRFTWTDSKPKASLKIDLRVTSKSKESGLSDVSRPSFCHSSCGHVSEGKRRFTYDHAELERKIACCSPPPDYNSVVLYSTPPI

Broadly, the Kd is the concentration at which binding is half-saturated. Take VEGF (from UniProt P15692): the Kd with sFlt-1 (Homo sapiens) was 0.03 nM.

For “human recombinant VEGFR-1/Flt-1 Fc chimera (from UniProt P17948-2 27-687) (Fc fusion)”, the VEGFR-2 phosphorylation in HUVECs with human VEGF, human sFlt-1 and a 4-fold molar excess of the antibody 21B3 (no letters) with human VEGF (human) [1] is 85 % of maximum. Moreover, the VEGFR-2 phosphorylation in HUVECs with VEGF, human sFlt-1 and 2 times to 4 times molar excess of the antibody 27H6 with human VEGF (human) [2] is 89 % of maximum.

B1: mouse recombinant VEGFR-1/Flt-1 Fc chimera (Fc fusion)
chain: YGSGSKLKVPELSLKGTQHVMQAGQTLFLKCRGEAAHSWSLPTTVSQEDKRLSITPPSACGRDNRQFCSTLTLDTAQANHTGLYTCRYLPTSTSKKKKAESSIYIFVSDAGSPFIEMHTDIPKLVHMTEGRQLIIPCRVTSPNVTVTLKKFPFDTLTPDGQRITWDSRRGFIIANATYKEIGLLNCEATVNGHLYQTNYLTHRQTNTILDVQIRPPSPVRLLHGQTLVLNCTATTELNTRVQMSWNYPGKATKRASIRQRIDRSHSHNNVFHSVLKINNVESRDKGLYTCRVKSGSSFQSFNTSVHVYEKGFISVKHRKQPVQETTAGRRSYRLSMKVKAFPSPEIVWLKDGSPATLKSARYLVHGYSLIIKDVTTEDAGDYTILLGIKQSRLFKNLTATLIVNVKPQIYEKSVSSLPSPPLYPLGSRQVLTCTVYGIPRPTITWLWHPCHHNHSKERYDFCTENEESFILDPSSNLGNRIESISQRMTVIEGTNKTVSTLVVADSQTPGIYSCRAFNKIGTVERNIKFYVTDVPNGFHVSLEKMPAEGEDLKLSCVVNKFLYRDITWILLRTVNNRTMHHSISKQKMATTQDYSITLNLVIKNVSLEDSGTYACRARNIYTGEDILRKTEVLVRDSEAPHLLQNLSDYEVSISGSTTLDCQARGVPAPQITWFKNNHKIQQEPGIILGPGNSTLFIERVTEEDEGVYRCRATNQKGAVESAAYLTVQGTSDKSNLE
As for B1, the VEGFR-2 phosphorylation in HUVECs with mouse VEGF, mouse sFlt-1 and a 10-fold molar excess of the antibody 21B3 (no letters) in the experiment with mouse VEGF (mouse) is 85 % of maximum.

The values are drawn from publication PMC8055526.
